Values belong to the binder of their own block, whether it stands above or below them.
Columns and labels:
[1] = molecular target: T1, human CD40 on cells (HEK293 transfectants, HEK-Blue CD40 reporter cells, human B cells, moDC, PBMC) (human, UniProt P25942 21-277); test: cell-based or functional assay
[2] = molecular target: T1, human CD40 on cells (HEK293 …); test: cell-based or functional assay; remark: listed apart in the source
[3] = molecular target: CD40 (binding assays of Example 4; species and form not stated) (UniProt P25942 21-193, limits assumed); test: antigen binding, method not stated
CD40 (binding assays of Example 4; species and form not stated), sequence (P25942 21-193 limits assumed): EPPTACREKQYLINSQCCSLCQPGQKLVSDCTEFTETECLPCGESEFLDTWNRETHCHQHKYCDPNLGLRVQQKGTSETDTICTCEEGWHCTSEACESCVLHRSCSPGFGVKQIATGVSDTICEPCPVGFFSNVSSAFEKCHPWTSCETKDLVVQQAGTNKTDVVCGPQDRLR

[4] = molecular target: T2, MSLN (Table 10-1; species and form not stated); test: antigen binding, method not stated
T2 construct: also called mesothelin
T2 sequence (Q13421 37-606): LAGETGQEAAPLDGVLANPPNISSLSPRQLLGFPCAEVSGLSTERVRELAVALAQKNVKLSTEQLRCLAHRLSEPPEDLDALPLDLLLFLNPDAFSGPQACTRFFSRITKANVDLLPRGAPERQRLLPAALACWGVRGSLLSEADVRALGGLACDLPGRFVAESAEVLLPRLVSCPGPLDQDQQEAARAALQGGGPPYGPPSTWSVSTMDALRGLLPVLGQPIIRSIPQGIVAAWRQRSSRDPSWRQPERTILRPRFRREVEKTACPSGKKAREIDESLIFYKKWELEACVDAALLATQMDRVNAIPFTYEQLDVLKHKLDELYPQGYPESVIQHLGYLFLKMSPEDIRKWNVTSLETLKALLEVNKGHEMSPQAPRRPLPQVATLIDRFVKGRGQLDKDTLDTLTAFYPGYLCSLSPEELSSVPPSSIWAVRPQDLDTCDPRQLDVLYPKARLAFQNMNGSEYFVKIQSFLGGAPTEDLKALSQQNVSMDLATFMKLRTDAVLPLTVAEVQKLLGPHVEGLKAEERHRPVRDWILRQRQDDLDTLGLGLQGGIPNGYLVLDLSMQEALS

[5] = molecular target: cynomolgus 4-1BB (cynomolgus); test: SPR

T1 sequence (P25942 21-277 limits assumed): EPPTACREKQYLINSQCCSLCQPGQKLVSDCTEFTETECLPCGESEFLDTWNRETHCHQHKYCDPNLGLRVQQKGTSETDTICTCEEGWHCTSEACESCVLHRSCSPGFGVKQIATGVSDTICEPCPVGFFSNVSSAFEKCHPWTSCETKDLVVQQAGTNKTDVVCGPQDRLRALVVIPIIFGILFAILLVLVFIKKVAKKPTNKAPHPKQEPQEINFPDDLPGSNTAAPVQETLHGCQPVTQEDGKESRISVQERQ

- Max. IL-12p70, dendritic cells [1]: 100 pg/mL
B1: CF1 (bispecific antibody, human IgG1, lambda)
heavy: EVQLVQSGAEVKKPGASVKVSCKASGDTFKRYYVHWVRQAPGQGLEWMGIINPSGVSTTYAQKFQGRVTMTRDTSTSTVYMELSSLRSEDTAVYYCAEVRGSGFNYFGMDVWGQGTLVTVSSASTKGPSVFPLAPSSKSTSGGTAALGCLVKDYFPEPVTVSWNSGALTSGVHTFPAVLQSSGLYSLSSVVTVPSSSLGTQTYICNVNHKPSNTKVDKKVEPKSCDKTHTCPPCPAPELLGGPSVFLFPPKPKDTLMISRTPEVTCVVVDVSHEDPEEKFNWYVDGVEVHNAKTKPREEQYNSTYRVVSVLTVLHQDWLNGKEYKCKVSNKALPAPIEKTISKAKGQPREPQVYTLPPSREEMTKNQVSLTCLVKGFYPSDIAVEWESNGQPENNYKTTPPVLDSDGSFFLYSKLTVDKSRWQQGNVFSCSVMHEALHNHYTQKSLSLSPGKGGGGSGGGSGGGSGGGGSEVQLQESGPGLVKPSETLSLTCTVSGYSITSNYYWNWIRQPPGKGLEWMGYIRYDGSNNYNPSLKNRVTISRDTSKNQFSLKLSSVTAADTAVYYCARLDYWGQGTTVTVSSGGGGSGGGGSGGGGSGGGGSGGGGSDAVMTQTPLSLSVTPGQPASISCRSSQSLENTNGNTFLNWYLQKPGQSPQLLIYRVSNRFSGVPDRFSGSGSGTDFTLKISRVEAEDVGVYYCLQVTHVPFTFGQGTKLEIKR
light: SYELTQPPSVSVSPGQTASITCSGDKLGDKYASWYQQKPGQSPVLVIYQDNRRPSGIPERFSGSNSGNTATLTISGTQAMDEADYYCQAWDSDTYVFGTGTKVTVLGQPKAAPSVTLFPPSSEELQANKATLVCLISDFYPGAVTVAWKADSSPVKAGVETTTPSKQSNNKYAASSYLSLTPEQWKSHRSYSCQVTHEGSTVEKTVAPTECS

- Max. IL-12p70, dendritic cells [1]: 75 pg/mL
B2: CF3 (bispecific antibody, human IgG1, lambda)
heavy: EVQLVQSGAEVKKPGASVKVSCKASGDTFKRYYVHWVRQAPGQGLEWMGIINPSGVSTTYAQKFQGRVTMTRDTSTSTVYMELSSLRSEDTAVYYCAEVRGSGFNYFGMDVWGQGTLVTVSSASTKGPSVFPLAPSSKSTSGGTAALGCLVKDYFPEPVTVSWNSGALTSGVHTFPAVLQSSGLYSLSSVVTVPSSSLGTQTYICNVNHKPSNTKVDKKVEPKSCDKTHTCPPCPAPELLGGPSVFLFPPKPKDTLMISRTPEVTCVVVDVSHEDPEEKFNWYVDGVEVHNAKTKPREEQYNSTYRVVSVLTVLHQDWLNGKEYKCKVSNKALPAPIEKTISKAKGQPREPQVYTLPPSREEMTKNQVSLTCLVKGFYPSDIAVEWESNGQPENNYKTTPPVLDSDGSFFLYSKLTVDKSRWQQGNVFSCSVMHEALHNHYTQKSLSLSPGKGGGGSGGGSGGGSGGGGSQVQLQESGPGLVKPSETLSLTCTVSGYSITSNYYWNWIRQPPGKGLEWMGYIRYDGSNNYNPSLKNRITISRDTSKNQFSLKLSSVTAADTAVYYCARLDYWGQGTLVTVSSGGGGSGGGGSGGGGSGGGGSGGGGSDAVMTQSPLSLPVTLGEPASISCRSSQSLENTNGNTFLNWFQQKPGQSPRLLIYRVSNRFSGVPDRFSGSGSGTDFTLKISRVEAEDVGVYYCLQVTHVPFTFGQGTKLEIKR
light: B1 light

- Maximal activation (OD655) [2]: 0.45 OD655
- EC50 [3]: 0.4 µg/mL
B3: huAb8-1 (antibody, human IgG1, V domains shown)
VH: EVQLVQSGAEVKKPGSSVKVSCKASGYTFTDYYINWVRQAPGQGLEWIGWIFPGSGSVYCNEQFKGRATLTVDRSTSTAYMELSSLRSEDTAVYFCASSLGKFAYWGQGTLVTVSS
VL: DIQMTQSPSSLSASVGDRVTITCKASQSVVTAVAWYQQKPGKSPKLLIYSASNRYTGVPSRFSGSGSGTDFTLTISSLQPEDFATYFCQQYSSYPYTFGGGTKVEIK

- Maximal activation (OD655) [2]: 0.67 OD655
- EC50 [3]: 0.2 µg/mL
B4: huAb9-5 (antibody, human IgG1, kappa)
heavy: not shown
light: DAVMTQTPLSLSVTPGQPASISCRSSQSLENTNGNTFLNWYLQKPGQSPQLLIYRVSNRFSGVPDRFSGSGSGTDFTLKISRVEAEDVGVYYCLQVTHVPFTFGQGTKLEIKRTVAAPSVFIFPPSDEQLKSGTASVVCLLNNFYPREAKVQWKVDNALQSGNSQESVTEQDSKDSTYSLSSTLTLSKADYEKHKVYACEVTHQGLSSPVTKSFNRGEC
notes: human IgG1, kappa

- EC50 [4]: 1.39 µg/mL
B5: LB-1 (bispecific antibody, mouse IgG1)
chain: EVQLVESGGGLVQPGRSLKLSCAASGFTFSNYDMAWVRQAPTKGLEWVASISPSGGRTYYRDSVKGRFTVSRDNAKSTLYLQMDSLRSEDTATYYCARHDGSYFDYWGQGVMVTVSSDLSGGGGSGGGGSGGGGSGGGGSTGDTVLTQSPALAVSPGERVTISCRASESVSTLMHWYQQKPGQQPKLLIYLASHLESGVPARFSGSGSGTDFTLTIDPVEADDTATYYCQESWNDPWTFGGGTKLELKRLEVPRDSGSKPCICTVPEVSSVFIFPPKPKDVLTITLTPKVTCVVVDISKDDPEVQFSWFVDDVEVHTAQTQPREEQFNSTFRSVSELPIMHQDWLNGKEFKCRVNSAAFPAPIEKTISKTKGRPKAPQVYTIPPPKEQMAKDKVSLTCMITDFFPEDITVEWQWNGQPAENYKNTQPIMDTDGSYFVYSKLNVQKSNWEAGNTFTCSVLHEGLHNHHTEKSLSHSPGKVDGASSPVNVSSPSVQDIQVQLVQSGAEVKKPGASVKVSCKASGYTFTGNYINWVRQAPGQGLEWMGIINPTKGWTLYAQKFQGRVTMTRDTSISTAYMELSSLRSEDTAVYYCARWHHGTWIFDYWGQGTLVTVSSDLSGGGGSGGGGSGGGGSGGGGSTGDIVLTQPPSVSGAPGQRVTISCSGSSSNIGSNYVSWYQQLPGTAPKLLIYNDNQRPSGVPDRFSGSKSGTSASLAITGLQSEDEADYYCSTYDRRTFSVFGGGTKLTVLG
notes: 1C10 scFv (VH-VL), murine IgG1 hinge-CH2-CH3, MOR06626 scFv (VH-VL)

- Kd [5]: 18 nM
- koff [5]: 0.022 s⁻¹
- kon [5]: 1.2e+06 M⁻¹ s⁻¹
B6: TABBY106-rIgG1 (antibody, V domains shown)
VH: QVQLQQSGAELAKPGTSVKLSCKASGYTFTSYYIYWVKQRPGQGLEWIGNIWPGNGGTFYGEKFMGKATFTADTSSSTAYMLLGSLTPEDSAYYFCARRPDYSGDDYFDYWGQGVLVTVSS
VL: QVVLTQPKSVSTSLKSTVKLSCKLNSGNIGSYYVHWYQQHAGRSPTTMIYRDDKRPDGVPDRFSGSIDSSSNSAFLTINNVQTEDDAIYFCHSYDSTITPVFGGGTKLTVL
notes: Rat IgG1, lambda

- EC50 [3]: 0.5 µg/mL
B7: B39 (bispecific antibody, IgG2)
chain: EVQLQESGPGLVKPSETLSLTCTVSGYSITSNYYWNWIRQPPGKGLEWMGYIRYDGSNNYNPSLKNRVTISRDTSKNQFSLKLSSVTAADTAVYYCARLDYWGQGTTVTVSSDLSGGGGSGGGGSGGGGSGGGGSTGDAVMTQTPLSLSVTPGQPASISCRSSQSLENTNGNTFLNWYLQKPGQSPQLLIYRVSNRFSGVPDRFSGSGSGTDFTLKISRVEAEDVGVYYCLQVTHVPFTFGQGTKLEIKRVERKSSVECPPCPAPPVAGPSVFLFPPKPKDTLMISRTPEVTCVVVDVSHEDPEVQFNWYVDGVEVHNAKTKPREEQFNSTFRVVSVLTVVHQDWLNGKEYKCKVSNKGLPAPIEKTISKTKGQPREPQVYTLPPSREEMTKNQVSLTCLVKGFYPSDIAVEWESNGQPENNYKTTPPMLDSDGSFFLYSKLTVDKSRWQQGNVFSCSVMHEALHNHYTQKSLSLSPGKVDGASSPVNVSSPSVQDIEVQLVQSGAEVKKPGASVKVSCKASGDTFKRYYVHWVRQAPGQGLEWMGIINPSGVSTTYAQKFQGRVTMTRDTSTSTVYMELSSLRSEDTAVYYCAEVRGSGFNYFGMDVWGQGTLVTVSSDLSGGGGSGGGGSGGGGSGGGGSTGSYELTQPPSVSVSPGQTASITCSGDKLGDKYASWYQQKPGQSPVLVIYQDNRRPSGIPERFSGSNSGNTATLTISGTQAMDEADYYCQAWDSDTYVFGTGTKVTVLGQ
notes: huAb9-5 (VH-VL) N-terminal, HuAM15 (VH-VL) C-terminal, huIgG2

- Kd [5]: 0.36 nM
- koff [5]: 0.00013 s⁻¹
- kon [5]: 350000 M⁻¹ s⁻¹
B8: TABBY107-rIgG1 (antibody, V domains shown)
VH: QVKLVQSGAALVKPGASVKMSCKASDYTFNDYWVSWVKQRHGESLEWIGEIYPNSGATNFNGKFRGKATLTVDNPTSTAYMELSRLTSEDSAIYYCTREYTRDWFAYWGQGTLVTVSS
VL: DVVLTQTPSILSATIGQSVSISCRSSQSLLDSDGNTYLYWFLQRPGQSPQRLIYLVSNLGSGVPNRFSGSGSGTDFTLKISGVEAEDLGIYYCMQPTHAPYTFGAGTKLELK
notes: Rat IgG1, kappa

- EC50 [4]: 0.06 µg/mL
B9: anti-MSLN antibody (MOR06626 mIgG1) (antibody, V domains shown)
VH: QVQLVQSGAEVKKPGASVKVSCKASGYTFTGNYINWVRQAPGQGLEWMGIINPTKGWTLYAQKFQGRVTMTRDTSISTAYMELSSLRSEDTAVYYCARWHHGTWIFDYWGQGTLVTVSS
VL: DIVLTQPPSVSGAPGQRVTISCSGSSSNIGSNYVSWYQQLPGTAPKLLIYNDNQRPSGVPDRFSGSKSGTSASLAITGLQSEDEADYYCSTYDRRTFSVFGGGTKLTVLG
